Results published in paper PMC3074123.

How the values were obtained:
EndA(H160G/R127A/K128A) = EndA(H160G/R127A/K128A) (Streptococcus pneumoniae, UniProt P0A3S3 31-274, H160G;R127A;K128A); assay: EMSA
EndA(H160G/R209A/K210A) = EndA(H160G/R209A/K210A) (Streptococcus pneumoniae, UniProt P0A3S3 31-274, H160G;R209A;K210A); assay: EMSA

B1: 24 bp duplex (dsDNA)
DNA 1: GCAAGGTGCGTGCAGCCTTGGACC
DNA 2: GGTCCAAGGCTGCACGCACCTTGC
B1: no binding (EndA(H160G/R127A/K128A)); no binding (EndA(H160G/R209A/K210A)).
